Results published in US20240101668A1 (WUGEN, published 2024).
Numbering of substitutions follows the chain as printed.

T1: huCLL1-Q244-Avi-Tev-His (human, UniProt Q5QGZ9 65-265)
T1 construct: extracellular domain; also called CLL-1 K244Q
T1 sequence (looked up): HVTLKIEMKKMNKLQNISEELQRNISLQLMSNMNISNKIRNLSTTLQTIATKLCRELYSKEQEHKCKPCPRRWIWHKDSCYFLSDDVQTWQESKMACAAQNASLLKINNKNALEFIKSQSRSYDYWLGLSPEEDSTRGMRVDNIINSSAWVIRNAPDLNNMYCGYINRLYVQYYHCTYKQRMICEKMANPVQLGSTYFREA

T2: huCLL1-K244-Avi-Tev-His (human, UniProt Q5QGZ9 65-265)
T2 construct: extracellular domain
T2 sequence (looked up): T1 sequence (looked up) with Q180K

B1: Polypeptide No. 245 (scFv, V domains shown)
VH: QVQLVQSGAEVKKPGSSVKVSCKASGYTFTGFYIHWVRQAPGQGLEWMGGVIPFFSRTIYAQKFQGRVTITADESTSTAYMELSSLRSEDTAVYYCAYGANGHLYGMDAWGQGTTVTVSS
VL: EIVMTQSPATLSVSPGERATLSCRASQSVSSSYLAWYQQKPGQAPRLLIYGASTRATGIPARFSGSGSGTEFTLTISSLQSEDFAVYYCQQYSSSPLTFGQGTKVEIKR
notes: scFv
B2: Polypeptide No. 250 (scFv, V domains shown)
VH: QVQLVQSGAEVKKPGSSVKVSCKASGYTLTSFAMHWVRQAPGQGLEWMGRIIPMSGTANYAQKFQGRVTITADESTSTAYMELSSLRSEDTAVYYCASTSPDQYYYGMDVWGQGTTVTVSS
VL: B1 VL with S30G, Y33S, S93G, L97Y
notes: scFv
B3: Polypeptide No. 263 (scFv, V domains shown)
VH: QVQLVQSGAEVKKPGSSVKVSCKASGGTFSSYAISWVRQAPGQGLEWMGGIIPIVGVANYAQKLQGRVTITADESTSTAYMELSSLRSEDTAVYYCAKDIGGYPSDAFDIWGQGTTVTVSS
VL: B1 VL with G51D, A52V, S93G, L97I
notes: scFv
B4: Polypeptide No. 286 (scFv, V domains shown)
VH: QVQLVQSGAEVKKPGASVKVSCKASGYTFTSYGISWVRQAPGQGLEWMGWISPNSGVTNYAQKFQGRVTMTRDTSTSTVYMELSSLRSEDTAVYYCVSDDYGAFDYWGQGTLVTVSS
VL: B1 VL with G51D, A52V, T57S, S93N, S94N, S95W, L97Y, V105L
notes: scFv
B5: Polypeptide No. 268 (scFv, V domains shown)
VH: QVQLVQSGAEVKKPGSSVKVSCKASGGTFSTYALSWVRQAPGQGLEWMGGVIPVFGTTDYAHKFQGRVTITADESTSTAYMELSSLRSEDTAVYYCASMIIFGAGGWDAYYFQEWGQGTLVTVSS
VL: B1 VL with S30N, S31N, S32N, Y33Q, G51D, A52T, T54S, S93D, S94T, L97Y
notes: scFv
B6: Polypeptide No. 281 (scFv, V domains shown)
VH: QVQLVQSGAEVKKPGASVKVSCKASGYTFNSYGISWVRQAPGQGLEWMGIINPTGGSTTYAQKFQGRVTMTRDTSTSTVYMELSSLRSEDTAVYYCAKDPFVMDVWGQGTTVTVSS
VL: B1 VL with G51D, T54A, T57A, S93Y, S95T, L97Y, V105L
notes: scFv
B7: Polypeptide No. 210 (scFv, V domains shown)
VH: QVQLVQSGAEVKKPGSSVKVSCKASGYTLTELSMHWVRQAPGQGLEWMGGIIPISGTTKYAQKFQGRVTITADESTSTAYMELSSLRSEDTAVYYCARASPRYYMDVWGKGTTVTVSS
VL: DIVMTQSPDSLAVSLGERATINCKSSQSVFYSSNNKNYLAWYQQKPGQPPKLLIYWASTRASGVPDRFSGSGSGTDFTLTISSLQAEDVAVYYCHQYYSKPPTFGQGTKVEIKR
notes: scFv
B8: Polypeptide No. 91 (scFv, V domains shown)
VH: QVQLVQSGAEVKKPGASVKVSCKASGGTFSSYAISWVRQAPGQGLEWMGWMNPNSGNTGYAQKFQGRVTMTRDTSTSTVYMELSSLRSEDTAVYYCAREDYYDSSGNFDYWGQGTLVTVSS
VL: DIQMTQSPSSLSASVGDRVTITCQASHDINIHLNWYQQKPGKAPKLLIYDASNLETGVPSRFSGSGSGTDFTLTISSLQPEDFATYYCQQAYSLPWTFGQGTKVEIKR
notes: scFv
B9: Polypeptide No. 191 (scFv, V domains shown)
VH: B8 VH
VL: B8 VL
notes: scFv
B10: Polypeptide No. 282 (scFv, V domains shown)
VH: QVQLVQSGAEVKKPGASVKVSCKASGGTFSSYAISWVRQAPGQGLEWMGWMNPNSGDTGYAQKFQGRVTMTRDTSTSTVYMELSSLRSEDTAVYYCARDFEGGGWFDPWGQGTLVTVSS
VL: EIVMTQSPATLSVSPGERATLSCRASRSISDYLAWYQQKPGQAPRLLIYDASSRATGIPARFSGSGSGTEFTLTISSLQSEDFAVYYCQQYYTTPLTFGQGTKVEIKR
notes: scFv
B11: Polypeptide No. 108 (scFv, V domains shown)
VH: QVQLVQSGAEVKKPGASVKVSCKASGYTFTNYDINWVRQAPGQGLEWMGWMNPNSGNTGLVEKFQGRVTMTRDTSTSTVYMELSSLRSEDTAVYYCARGWGHGYGDYKFDYWGQGTLVTVSS
VL: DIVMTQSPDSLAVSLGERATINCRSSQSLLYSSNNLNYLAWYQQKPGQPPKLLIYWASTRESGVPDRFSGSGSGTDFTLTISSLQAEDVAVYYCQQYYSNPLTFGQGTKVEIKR
notes: scFv
B12: Polypeptide No. 224 (scFv, V domains shown)
VH: QVQLVQSGAEVKKPGSSVKVSCKASGYTFTGYYMHWVRQAPGQGLEWMGVINPIYGTANYALKFQGRVTITADESTSTAYMELSSLRSEDTAVYYCAKAISSGWSNDAFDIWGQGTMVTVSS
VL: EIVMTQSPATLSVSPGERATLSCRASQSVSSDFLAWYQQKPGQAPRLLIYDTSSRASGIPARFSGSGSGTEFTLTISSLQSEDFAVYYCQQYAGPPTFGQGTRLEIKR
notes: scFv
B13: Polypeptide No. 89 (scFv, V domains shown)
VH: QVQLVQSGAEVKKPGASVKVSCKASGYTFTNYYMHWVRQAPGQGLEWMGWINPNSGDTNYEQKFQGRVTMTRDTSTSTVYMELSSLRSEDTAVYYCARDDRIQLWVPLVFWGQGTLVTVSS
VL: DIQMTQSPSSLSASVGDRVTITCRASQGISNYLAWYQQKPGKAPKLLIYSASNLQSGVPSRFSGSGSGTDFTLTISSLQPEDFATYYCQQSFSTPFTFGQGTKLEIKR
notes: scFv
B14: Polypeptide No. 144 (scFv, V domains shown)
VH: QVQLVQSGAEVKKPGASVKVSCKASGYTFTAYYMHWVRQAPGQGLEWMGIIDPSGGSTSYAQQFQGRVTMTRDTSTSTVYMELSSLRSEDTAVYYCARGDYGDYHTLWGQGTLVTVSS
VL: B13 VL with N31S, S50D, N53S, F92Y, F96I, Q100P, L104V, E105D
notes: scFv
B15: Polypeptide No. 193 (scFv, V domains shown)
VH: EVQLLESGGGLVQPGGSLRLSCAASGFTFSNSDMNWVRQAPGKGLEWVSYISGTGSTIYYADSVKGRFTISRDNSKNTLYLQMNSLRAEDTAVYYCAKDYDSSYGSGYYGMDVWGQGTTVTVSS
VL: B13 VL with G28S, S30Y, A34N, S50A, S91Y, F92G, S93N, T94A, F96L, L104V
notes: scFv
B16: Polypeptide No. 90 (scFv, V domains shown)
VH: B15 VH
VL: B13 VL with G28S, S30Y, A34N, S50A, S91Y, F92G, S93N, T94A, F96L, L104V
notes: scFv
B17: Polypeptide No. 100 (scFv, V domains shown)
VH: QVQLVQSGAEVKKPGASVKVSCKASGATRSWMHWVRQAPGQGLEWMGIINPSGDSTSYAQKFQGRVTMTRDTSTSTVYMELSSLRSEDTAVYYCAKEPYSSSPYYFDYWGQGTLVTVSS
VL: B13 VL with G28S, N31S, Y32W, S50G, N53S, F92Y, S93T, F96I, K103R
notes: scFv
B18: Polypeptide No. 226 (scFv, V domains shown)
VH: QVQLVQSGAEVKKPGASVKVSCKASGYTFTGYYMHWVRQAPGQGLEWMGIIDPSGGSTSYAQKFQGRVTMTRDTSTSTVYMELSSLRSEDTAVYYCARDRSLLWSGVGGMDVWGQGTTVTVSS
VL: B13 VL with S50G, F92Y, S93G, F96Y
notes: scFv
B19: Polypeptide No. 192 (scFv, V domains shown)
VH: B13 VH
VL: B13 VL
notes: scFv
B20: Polypeptide No. 145 (scFv, V domains shown)
VH: QVQLVQSGAEVKKPGASVKVSCKASGGTFSTSYMHWVRQAPGQGLEWMGWIHPDDGNTDYAPKFQGRVTMTRDTSTSTVYMELSSLRSEDTAVYYCARDLGDYDTFDIWGQGTMVTVSS
VL: B13 VL with A25V, N31S, A34N, S50D, S56A, F92Y, F96P, L104V
notes: scFv

What was measured:
[1] = molecular target: T3, huFLT3-M227 stably expressed on Ramos cells (human, UniProt P36888 27-993); assay: FACS on cells
T3 construct: whole, on cells; also called FLT3 Mutant
Protocol: For FLT3, Ramos cells were engineered to stably express either the huFLT3-T227 or huFLT3-M227 variant at >200,000 receptors per cell. Parental, huFLT3-T227, and huFLT3-M227 Ramos cell lines were stained with differing levels of CellTrace Violet Cell Proliferation Kit (ThermoFisher, cat. #C34557) to barcode each cell line. Barcoded Ramos cell lines were fixed with paraformaldehyde and incubated with myc-labeled scFv periplasmic extracts and a secondary anti-myc PE-conjugated monoclonal antibody. Appropriate positive and negative controls were used. Stained cells were analyzed by flow cytometry (CytoFLEX, Beckman Coulter, Inc.) and binding was assessed by change in PE mean fluorescence intensity (MFI) of the barcoded cell populations.

[2] = molecular target: T4, huCD33-G69 stably expressed on Jurkat cells (human, UniProt P20138 18-364); assay: FACS on cells;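 also: fixed Jurkat lines probed with myc-tagged scFv periplasmic extracts, anti-myc PE flow cytometry, PE MFI fold binned − <2, + 2–10, ++ 10–30, +++ >30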
T4 construct: whole, on cells; >200,000 receptors per cell; also called CD33 Mutant; CD33 R69G
Protocol: (§1) Jurkat cells were engineered to stably express either the huCD33-R69 or huCD33-G69 variant at >200,000 receptors per cell. Parental, huCD33-R69, and huCD33-G69 Jurkat cell lines were stained with differing levels of CellTrace Violet Cell Proliferation Kit (ThermoFisher, cat. #C34557) to barcode each cell line. Barcoded Jurkat cell lines were fixed with paraformaldehyde and incubated with myc-labeled scFv periplasmic extracts and a secondary anti-myc PE-conjugated monoclonal antibody. Appropriate positive and negative controls were used. Stained cells were analyzed by flow cytometry (CytoFLEX, Beckman Coulter, Inc.) and binding was assessed by change in PE mean fluorescence intensity (MFI) of the barcoded cell populations.
(§2) Data is disclosed below in Table 16c, reporting FACS fold change over parental as (−), indicating <2 fold; (+), indicating 2-10 fold; (++), indicating 10-30 fold; and (+++), indicating >30 fold.

[3] = molecular target: T5, huCD33-R69 stably expressed on Jurkat cells (human, UniProt P20138 18-364); assay: FACS on cells;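 also: fixed Jurkat lines probed with myc-tagged scFv periplasmic extracts, anti-myc PE flow cytometry, PE MFI fold binned − <2, + 2–10, ++ 10–30, +++ >30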
T5 construct: whole, on cells; >200,000 receptors per cell; also called CD33 WT; CD33^ARG69
Protocol: as §1, §2

huCLL1-Q244-Avi-Tev-His = molecular target: T1, huCLL1-Q244-Avi-Tev-His; assay: BLI
huCLL1-K244-Avi-Tev-His = molecular target: T2, huCLL1-K244-Avi-Tev-His; assay: BLI

T3 sequence (P36888 27-993 T227M): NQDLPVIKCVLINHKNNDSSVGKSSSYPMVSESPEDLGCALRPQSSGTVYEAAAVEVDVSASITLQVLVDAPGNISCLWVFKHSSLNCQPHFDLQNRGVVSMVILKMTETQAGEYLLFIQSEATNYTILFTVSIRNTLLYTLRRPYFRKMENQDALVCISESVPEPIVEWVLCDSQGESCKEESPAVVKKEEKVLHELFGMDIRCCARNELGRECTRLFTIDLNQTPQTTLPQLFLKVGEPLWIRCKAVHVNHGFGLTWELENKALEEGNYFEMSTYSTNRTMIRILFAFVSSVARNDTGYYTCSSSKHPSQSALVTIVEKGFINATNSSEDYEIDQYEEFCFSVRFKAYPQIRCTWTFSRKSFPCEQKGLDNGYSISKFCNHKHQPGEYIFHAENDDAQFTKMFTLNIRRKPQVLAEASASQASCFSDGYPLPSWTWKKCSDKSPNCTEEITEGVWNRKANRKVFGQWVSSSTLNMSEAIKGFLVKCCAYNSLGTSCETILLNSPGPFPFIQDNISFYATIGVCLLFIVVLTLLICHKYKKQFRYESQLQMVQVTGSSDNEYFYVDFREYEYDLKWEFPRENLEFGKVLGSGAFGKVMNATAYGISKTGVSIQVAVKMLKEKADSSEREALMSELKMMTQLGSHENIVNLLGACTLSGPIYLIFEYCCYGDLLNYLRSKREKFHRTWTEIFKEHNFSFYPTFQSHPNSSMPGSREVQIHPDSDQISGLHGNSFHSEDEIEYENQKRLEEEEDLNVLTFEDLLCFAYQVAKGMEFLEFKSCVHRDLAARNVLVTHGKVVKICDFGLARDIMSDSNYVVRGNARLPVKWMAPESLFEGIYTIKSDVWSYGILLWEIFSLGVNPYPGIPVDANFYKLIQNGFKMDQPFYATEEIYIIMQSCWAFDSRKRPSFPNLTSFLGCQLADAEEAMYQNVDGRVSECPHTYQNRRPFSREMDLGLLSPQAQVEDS
T5 sequence (P20138 18-364): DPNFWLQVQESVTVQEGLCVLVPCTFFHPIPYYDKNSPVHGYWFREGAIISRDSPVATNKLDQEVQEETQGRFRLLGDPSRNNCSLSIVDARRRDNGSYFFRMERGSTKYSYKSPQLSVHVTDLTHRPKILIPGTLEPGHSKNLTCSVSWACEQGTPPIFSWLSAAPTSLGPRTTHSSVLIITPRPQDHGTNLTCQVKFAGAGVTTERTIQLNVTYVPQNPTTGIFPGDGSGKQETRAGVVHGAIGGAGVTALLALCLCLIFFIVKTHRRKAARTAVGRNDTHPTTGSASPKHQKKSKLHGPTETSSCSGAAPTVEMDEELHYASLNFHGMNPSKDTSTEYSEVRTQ
T4 sequence (P20138 18-364 R69G): as the sequence (P20138 18-364) above, with R52G counted along it

| Binder | FACS geometric mean fold change over Jurkat parental [1] | FACS geometric mean fold change over Jurkat parental [2] | FACS geometric mean fold change over Jurkat parental [3] | further results |
| --- | --- | --- | --- | --- |
| B1 | 2 to 10 fold |  |  |  |
| B2 | 2 to 10 fold |  |  |  |
| B3 | 2 to 10 fold |  |  |  |
| B4 | 2 to 10 fold |  |  |  |
| B5 | 2 to 10 fold |  |  |  |
| B6 | 2 to 10 fold |  |  |  |
| B7 | 2 to 10 fold |  |  |  |
| B8 |  | 10 to 30 fold | > 30 fold |  |
| B9 |  | 10 to 30 fold | > 30 fold |  |
| B10 | 2 to 10 fold |  |  |  |
| B11 |  | 10 to 30 fold | 10 to 30 fold |  |
| B12 | 2 to 10 fold |  |  |  |
| B13 |  | 10 to 30 fold | 10 to 30 fold |  |
| B14 |  |  |  | binding result (huCLL1-Q244-Avi-Tev-His): binds; binding result (huCLL1-K244-Avi-Tev-His): binds |
| B15 |  | > 30 fold | > 30 fold |  |
| B16 |  | > 30 fold | > 30 fold |  |
| B17 |  | 10 to 30 fold | 10 to 30 fold |  |
| B18 | 2 to 10 fold |  |  |  |
| B19 |  | 10 to 30 fold | 10 to 30 fold |  |
| B20 |  |  |  | binding result (huCLL1-Q244-Avi-Tev-His): binds; binding result (huCLL1-K244-Avi-Tev-His): binds |
